Source: patent publication US20100015126A1, “Methods of Binding of Cross-Beta Structures By Chaperones” (priority 2006, published 2010)

Key:
[1] = target: 187 kDa protein/Complement component 3 (human) (UniProt P01024); assay: BiP-Sepharose pull-down, RA synovial fluid sample 1B, 1 M NaCl eluate, MS; may be indirect
[2] = target: Apolipoprotein A-I precursor (human) (UniProt P02647); assay: as above
[3] = target: Apolipoprotein A-II precursor (human) (UniProt P02652); assay: as above
[4] = target: Apolipoprotein A-IV precursor (human) (UniProt P06727); assay: as above
[5] = target: Apolipoprotein E precursor/Apolipoprotein E/Apolipoprotein E3 (Fragment) (human) (UniProt P02649); assay: as above
[6] = target: Clusterin precursor (human) (UniProt P10909); assay: as above
[7] = target: FLJ00385 protein (Fragment), immunoglobulin heavy constant mu (human) (UniProt P01871); assay: as above
[8] = target: Galectin-3-binding protein precursor (human) (UniProt Q08380); assay: as above
[9] = target: Haptoglobin precursor (human) (UniProt P00738); assay: as above
[10] = target: Heat shock 70 kDa protein 1L (human) (UniProt P34931); assay: as above
[11] = target: Histidine-rich glycoprotein precursor (human) (UniProt P04196); assay: as above
[12] = target: Histone H2B type 2-E (human) (UniProt Q16778); assay: as above
[13] = target: Hypothetical protein DKFZp686I04196 (Fragment)/Immunoglobulin heavy constant gamma 2 (G2m marker)/Ig gamma-2 chain C region (human) [IgG part: P01859]; assay: as above
[14] = target: IGHG4 protein, immunoglobulin heavy constant gamma 4 (human) [IgG part: P01861]; assay: as above
[15] = target: IGHM protein, coagulation factor VII (serum prothrombin conversion accelerator) (human) (UniProt P08709); assay: as above
[16] = target: IGHM protein, immunoglobulin heavy chain mu (heavy chain disease protein) (human) (UniProt P01871); assay: as above
[17] = target: IGKV1-5 protein, immunoglobulin kappa variable 1-5 (human) (UniProt P01602); assay: as above
[18] = target: Isoform 1 of Fibrinogen alpha chain precursor (human) (UniProt P02671); assay: as above
[19] = target: Isoform A of Proteoglycan-4 precursor (human) (UniProt Q92954); assay: as above
[20] = target: Single-chain Fv (Fragment), Ig heavy chain V-III region TRO (human) (UniProt P01762); assay: as above
[21] = target: Vitronectin precursor (Serum-spreading factor/S-protein) (human) (UniProt P04004); assay: as above
[22] = target: fibronectin 1 isoform 4 preproprotein (human) (UniProt P02751); assay: as above
[23] = target: IGLC1 protein (immunoglobulin lambda C1)/immunoglobulin lambda chain/immunoglobulin C1 segment protein (fragment) (human) (UniProt P0CG04); assay: BiP-Sepharose pull-down, RA patient IV synovial fluid (B6), MS of urea eluate; may be indirect
[24] = target: Ig heavy chain V-III region CAM (human) (UniProt P01768); assay: as above
[25] = target: Immunoglobulin heavy constant mu (IPI00479708) (human) (UniProt P01871); assay: as above
[26] = target: 25 kDa protein/immunoglobulin lambda chain/rheumatoid factor G9 light chain (lambda V3)/IGLC1 protein (human) (UniProt P0CG04); assay: BiP-Sepharose pull-down, AL amyloidosis patient II plasma (B3), MS of urea eluate; may be indirect
[27] = target: Apolipoprotein E precursor/Apolipoprotein E/Apolipoprotein E3 (Fragment) (human) (UniProt P02649); assay: as above
[28] = target: Dynein heavy chain domain 3/KIAA1503 protein (Fragment) (human) (UniProt Q9P225); assay: as above
[29] = target: Immunoglobulin heavy constant gamma 3 (G3m marker)/Ig gamma-3 chain C region (human) (UniProt P01860); assay: as above
[30] = target: V1-3 protein (Fragment)/immunoglobulin lambda variable 2-11 (human) (UniProt P01706); assay: as above

Sequence of recombinant human BiP with C-terminal linker, FLAG-tag and His-tag (BiP-FLAG-His) (P11021 other isoform, or with tags, fused parts or gaps): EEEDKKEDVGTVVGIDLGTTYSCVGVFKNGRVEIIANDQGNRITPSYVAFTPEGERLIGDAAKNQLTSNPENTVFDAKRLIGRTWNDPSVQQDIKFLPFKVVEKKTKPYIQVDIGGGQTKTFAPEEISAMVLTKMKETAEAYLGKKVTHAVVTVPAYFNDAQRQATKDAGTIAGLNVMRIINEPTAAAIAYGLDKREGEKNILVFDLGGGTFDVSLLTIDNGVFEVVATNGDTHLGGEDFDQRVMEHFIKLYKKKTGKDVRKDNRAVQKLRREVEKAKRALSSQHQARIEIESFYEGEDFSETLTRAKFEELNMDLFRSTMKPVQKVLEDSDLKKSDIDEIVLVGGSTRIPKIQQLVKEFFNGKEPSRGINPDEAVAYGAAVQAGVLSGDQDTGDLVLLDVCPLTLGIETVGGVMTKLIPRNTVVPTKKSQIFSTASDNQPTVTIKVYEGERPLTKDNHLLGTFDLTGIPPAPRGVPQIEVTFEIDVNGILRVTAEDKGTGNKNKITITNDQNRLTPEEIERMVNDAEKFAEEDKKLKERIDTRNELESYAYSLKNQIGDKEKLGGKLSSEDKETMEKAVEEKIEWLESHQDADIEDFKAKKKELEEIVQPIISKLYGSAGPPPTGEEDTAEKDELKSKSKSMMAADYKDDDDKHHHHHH
Sequence of Apolipoprotein E precursor/Apolipoprotein E/Apolipoprotein E3 (Fragment) (human) (P02649 19-317 limits assumed): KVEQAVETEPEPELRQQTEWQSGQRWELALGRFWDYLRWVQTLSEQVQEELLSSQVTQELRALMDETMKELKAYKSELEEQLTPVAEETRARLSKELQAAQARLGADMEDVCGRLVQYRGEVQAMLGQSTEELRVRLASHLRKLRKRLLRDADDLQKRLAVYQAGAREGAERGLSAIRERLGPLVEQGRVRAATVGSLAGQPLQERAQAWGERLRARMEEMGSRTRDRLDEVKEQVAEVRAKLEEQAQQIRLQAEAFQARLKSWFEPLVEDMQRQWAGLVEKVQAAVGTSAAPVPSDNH
Sequence of 187 kDa protein/Complement component 3 (human) (P01024 23-1663 limits assumed): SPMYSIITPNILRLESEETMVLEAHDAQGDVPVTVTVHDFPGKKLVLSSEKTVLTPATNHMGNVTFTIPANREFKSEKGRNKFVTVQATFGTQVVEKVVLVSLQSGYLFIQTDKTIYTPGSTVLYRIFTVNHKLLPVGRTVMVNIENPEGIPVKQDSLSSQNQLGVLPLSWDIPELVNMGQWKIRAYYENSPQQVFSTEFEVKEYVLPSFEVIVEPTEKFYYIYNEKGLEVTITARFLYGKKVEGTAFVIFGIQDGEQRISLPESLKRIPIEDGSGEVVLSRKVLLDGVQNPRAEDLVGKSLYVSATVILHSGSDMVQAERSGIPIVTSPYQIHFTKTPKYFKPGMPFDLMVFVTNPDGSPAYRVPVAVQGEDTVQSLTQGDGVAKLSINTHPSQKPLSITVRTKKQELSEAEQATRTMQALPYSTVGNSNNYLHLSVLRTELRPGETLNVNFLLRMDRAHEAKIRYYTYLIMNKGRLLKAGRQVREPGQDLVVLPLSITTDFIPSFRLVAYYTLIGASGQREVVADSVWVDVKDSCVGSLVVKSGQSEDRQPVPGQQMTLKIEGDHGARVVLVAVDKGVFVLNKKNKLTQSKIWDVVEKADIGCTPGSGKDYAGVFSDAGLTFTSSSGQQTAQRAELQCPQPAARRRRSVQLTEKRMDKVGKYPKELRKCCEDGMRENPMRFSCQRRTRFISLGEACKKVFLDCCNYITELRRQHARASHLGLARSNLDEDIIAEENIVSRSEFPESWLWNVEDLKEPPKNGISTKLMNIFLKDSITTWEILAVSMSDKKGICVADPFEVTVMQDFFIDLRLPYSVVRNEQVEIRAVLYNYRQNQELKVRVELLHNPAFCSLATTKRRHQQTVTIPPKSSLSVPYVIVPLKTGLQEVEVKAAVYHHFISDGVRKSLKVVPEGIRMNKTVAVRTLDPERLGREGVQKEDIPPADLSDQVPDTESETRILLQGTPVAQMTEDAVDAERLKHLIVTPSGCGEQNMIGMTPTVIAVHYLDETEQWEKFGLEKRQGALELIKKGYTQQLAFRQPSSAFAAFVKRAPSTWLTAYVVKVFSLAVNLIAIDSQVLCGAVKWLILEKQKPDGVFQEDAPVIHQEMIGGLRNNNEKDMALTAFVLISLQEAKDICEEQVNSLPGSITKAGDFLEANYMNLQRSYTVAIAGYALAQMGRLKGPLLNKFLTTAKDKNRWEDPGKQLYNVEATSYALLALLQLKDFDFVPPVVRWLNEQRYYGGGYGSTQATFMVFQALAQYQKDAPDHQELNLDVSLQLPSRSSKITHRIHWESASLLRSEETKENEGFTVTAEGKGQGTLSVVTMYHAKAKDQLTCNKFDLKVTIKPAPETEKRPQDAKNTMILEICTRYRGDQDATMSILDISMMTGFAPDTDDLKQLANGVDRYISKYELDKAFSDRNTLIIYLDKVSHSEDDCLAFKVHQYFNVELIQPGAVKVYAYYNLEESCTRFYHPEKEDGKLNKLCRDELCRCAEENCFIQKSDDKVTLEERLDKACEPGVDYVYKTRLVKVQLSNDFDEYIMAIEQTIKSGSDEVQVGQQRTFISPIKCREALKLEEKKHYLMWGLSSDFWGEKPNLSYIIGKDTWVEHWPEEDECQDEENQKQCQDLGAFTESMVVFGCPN
Sequence of Galectin-3-binding protein precursor (human) (Q08380 19-585 limits assumed): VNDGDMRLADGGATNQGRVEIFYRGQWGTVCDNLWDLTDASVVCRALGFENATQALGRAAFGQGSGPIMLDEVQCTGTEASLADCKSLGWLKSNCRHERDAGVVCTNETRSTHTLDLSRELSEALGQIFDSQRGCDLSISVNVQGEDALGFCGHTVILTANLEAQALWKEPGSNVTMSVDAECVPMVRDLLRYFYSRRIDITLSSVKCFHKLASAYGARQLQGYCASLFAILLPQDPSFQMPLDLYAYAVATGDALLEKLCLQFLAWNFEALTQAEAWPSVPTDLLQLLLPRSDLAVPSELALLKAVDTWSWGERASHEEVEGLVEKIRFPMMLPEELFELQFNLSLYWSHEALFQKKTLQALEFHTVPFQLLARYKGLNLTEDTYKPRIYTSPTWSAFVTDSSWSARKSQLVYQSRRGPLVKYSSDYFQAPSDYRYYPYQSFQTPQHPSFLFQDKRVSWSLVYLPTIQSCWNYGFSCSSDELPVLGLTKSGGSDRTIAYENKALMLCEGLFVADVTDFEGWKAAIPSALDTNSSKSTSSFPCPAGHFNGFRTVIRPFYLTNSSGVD
Sequence of Isoform 1 of Fibrinogen alpha chain precursor (human) (P02671 20-866 limits assumed, form in doubt): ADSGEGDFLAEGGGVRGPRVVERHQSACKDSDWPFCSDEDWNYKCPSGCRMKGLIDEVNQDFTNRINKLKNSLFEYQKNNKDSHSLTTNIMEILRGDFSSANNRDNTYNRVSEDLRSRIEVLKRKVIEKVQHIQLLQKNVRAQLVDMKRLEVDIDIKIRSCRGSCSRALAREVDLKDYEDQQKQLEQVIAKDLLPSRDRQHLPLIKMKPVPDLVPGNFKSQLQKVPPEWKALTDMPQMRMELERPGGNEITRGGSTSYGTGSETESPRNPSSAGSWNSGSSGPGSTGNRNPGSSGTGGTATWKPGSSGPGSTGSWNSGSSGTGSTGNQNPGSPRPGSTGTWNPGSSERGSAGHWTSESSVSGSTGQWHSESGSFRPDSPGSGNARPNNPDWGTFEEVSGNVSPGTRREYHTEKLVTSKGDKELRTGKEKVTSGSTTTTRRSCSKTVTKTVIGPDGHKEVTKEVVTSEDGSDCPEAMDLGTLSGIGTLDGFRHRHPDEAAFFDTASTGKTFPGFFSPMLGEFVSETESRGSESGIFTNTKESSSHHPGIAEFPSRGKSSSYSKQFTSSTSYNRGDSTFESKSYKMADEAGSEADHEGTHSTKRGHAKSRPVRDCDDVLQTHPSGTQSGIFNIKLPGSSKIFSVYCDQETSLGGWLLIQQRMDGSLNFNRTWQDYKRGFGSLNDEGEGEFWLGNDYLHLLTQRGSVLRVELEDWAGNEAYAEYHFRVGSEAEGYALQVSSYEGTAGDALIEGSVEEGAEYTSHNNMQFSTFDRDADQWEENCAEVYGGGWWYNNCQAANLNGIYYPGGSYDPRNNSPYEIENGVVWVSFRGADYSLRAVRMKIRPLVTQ
Sequence of Hypothetical protein DKFZp686I04196 (Fragment)/Immunoglobulin heavy constant gamma 2 (G2m marker)/Ig gamma-2 chain C region (human) [IgG part: P01859] (P01859 other isoform, or with tags, fused parts or gaps limits assumed): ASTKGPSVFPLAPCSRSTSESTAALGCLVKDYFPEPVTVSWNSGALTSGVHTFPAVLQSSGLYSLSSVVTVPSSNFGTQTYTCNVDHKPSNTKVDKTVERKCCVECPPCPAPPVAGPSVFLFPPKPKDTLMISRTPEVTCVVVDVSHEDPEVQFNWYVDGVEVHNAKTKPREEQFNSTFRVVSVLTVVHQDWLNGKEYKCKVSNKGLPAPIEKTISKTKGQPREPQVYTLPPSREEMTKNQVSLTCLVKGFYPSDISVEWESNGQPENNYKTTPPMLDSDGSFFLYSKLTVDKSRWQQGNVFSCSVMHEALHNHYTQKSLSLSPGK
Sequence of IGKV1-5 protein, immunoglobulin kappa variable 1-5 (human) (P01602 23-117 limits assumed): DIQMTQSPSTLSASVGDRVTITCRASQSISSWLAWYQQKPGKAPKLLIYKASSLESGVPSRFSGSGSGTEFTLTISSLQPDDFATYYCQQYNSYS
Sequence of Vitronectin precursor (Serum-spreading factor/S-protein) (human) (P04004 20-478 limits assumed): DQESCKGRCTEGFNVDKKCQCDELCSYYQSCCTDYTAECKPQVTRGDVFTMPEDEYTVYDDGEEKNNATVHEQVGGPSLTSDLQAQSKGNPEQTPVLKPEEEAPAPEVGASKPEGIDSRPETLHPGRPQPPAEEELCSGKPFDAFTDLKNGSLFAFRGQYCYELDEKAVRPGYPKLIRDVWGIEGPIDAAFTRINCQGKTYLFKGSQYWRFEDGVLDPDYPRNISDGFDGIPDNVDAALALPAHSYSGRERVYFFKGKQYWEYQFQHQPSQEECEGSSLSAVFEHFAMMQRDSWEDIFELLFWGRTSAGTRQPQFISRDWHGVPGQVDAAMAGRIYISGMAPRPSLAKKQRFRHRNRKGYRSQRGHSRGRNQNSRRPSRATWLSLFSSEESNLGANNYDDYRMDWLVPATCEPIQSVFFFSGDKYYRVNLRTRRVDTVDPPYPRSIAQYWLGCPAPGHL
Sequence of Single-chain Fv (Fragment), Ig heavy chain V-III region TRO (human) (P01762 20-117 limits assumed): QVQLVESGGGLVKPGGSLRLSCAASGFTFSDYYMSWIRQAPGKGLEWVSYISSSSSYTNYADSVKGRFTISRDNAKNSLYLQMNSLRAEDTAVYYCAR

**Q.** Which results are given for “recombinant human BiP with C-terminal linker, FLAG-tag and His-tag (BiP-FLAG-His) (from UniProt P11021 19-654)”?
**A.** # of unique peptides [1]: 2 peptides; # of unique peptides [2]: 3 peptides; # of unique peptides [3]: 1 peptides; # of unique peptides [4]: 3 peptides; # of unique peptides [5]: 1 peptides; # of unique peptides [6]: 1 peptides; # of unique peptides [7]: 1 peptides; # of unique peptides [8]: 1 peptides; # of unique peptides [9]: 1 peptides; # of unique peptides [10]: 1 peptides; # of unique peptides [11]: 2 peptides; # of unique peptides [12]: 2 peptides; # of unique peptides [13]: 1 peptides; # of unique peptides [14]: 4 peptides; # of unique peptides [15]: 2 peptides; # of unique peptides [16]: 3 peptides; # of unique peptides [17]: 3 peptides; # of unique peptides [18]: 3 peptides; # of unique peptides [19]: 2 peptides; # of unique peptides [20]: 2 peptides; # of unique peptides [21]: 1 peptides; # of unique peptides [22]: 10 peptides; # of peptides [23]: 1 peptides; # of peptides [24]: 2 peptides; # of peptides [25]: 1 peptides; # of peptides [26]: 1 peptides; # of peptides [27]: 1 peptides; # of peptides [28]: 2 peptides; # of peptides [29]: 2 peptides; # of peptides [30]: 2 peptides
